Values quoted from earlier work in PMC6903724.

Target: IL-18 (Homo sapiens) (UniProt Q14116)
Sequence (Q14116 37-193): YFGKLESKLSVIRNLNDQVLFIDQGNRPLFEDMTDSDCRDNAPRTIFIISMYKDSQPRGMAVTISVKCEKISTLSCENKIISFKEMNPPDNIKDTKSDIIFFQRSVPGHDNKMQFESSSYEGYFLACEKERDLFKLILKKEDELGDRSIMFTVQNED

Chain of IL-18BP (O95998 31-194): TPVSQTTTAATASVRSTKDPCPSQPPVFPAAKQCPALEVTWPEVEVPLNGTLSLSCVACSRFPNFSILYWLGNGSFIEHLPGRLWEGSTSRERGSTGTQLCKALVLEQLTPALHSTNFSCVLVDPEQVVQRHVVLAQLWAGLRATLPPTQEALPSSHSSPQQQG

Question: With IL-18BP (from UniProt O95998) as the substance, how does the Kd read?
Answer: 0.4 nM
